# From the supplement of paper PMC12636428
# Test system: Saccharomyces cerevisiae
# Assay: transcriptional activation domain activity (GFP:mCherry ratio, weighted mean of sorted bins, harmonized to initial dataset scale) (arbitrary fluorescence ratio units); higher = stronger transcriptional activation
# Details: beta-estradiol 1 µM; induction time 4 h
# Procedure, shortened: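 Barcoded protein tiles fused to an estradiol-inducible synthetic transcription factor were integrated at the yeast URA3 locus, in diploids carrying a GFP reporter. Cultures were diluted 1:5 into SC with 1 uM beta-estradiol, held 4 hours at 30 °C, sorted into 8 bins by GFP:mCherry ratio, and barcodes sequenced. Tiles under 50 reads were discarded. Activation activity is the read-weighted mean of bin median fluorescence, averaged across barcodes, then linearly mapped onto the initial dataset scale.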
row,Sequence,transcriptional activation domain activity
1,STPAPTTAAGGKKEAEKPEEKSEEKPEEKPAEKPAEKPAEKPAEVKPEEKAIQ,25400
2,FLRLFCFAFIMLVGILPTQAYVVYADVKLSMPWHAYSWSNMHGPSWHTVNMVP,51400
3,NKKRETRKGESTKSNDEEEEEEEDDDDEKKQGQKKQSNGQSKKSNGSSKKEED,48700
4,MQFDIGPFVFFGLGWLSAIYLLLFPFFFFFFRLFPSLEFWLDLALIFMFRVLH,46300
5,HHFVCAFYFQDSWGLGLMKRLLIVVCLLLATYVFPLPLTSPPWSFIWKQSWVI,48300
6,KEEEQKELDRMAREEKKVWGDALRLGRTSWSESVMVWSHVMALRVFVETVLRY,62900
7,KPLSKRAAPKKAPAKRKSSAGSKSKETSAEPPKKRPAKAKAKPKKEATPASSP,41900
8,IRLMPFYSSPNVDVAEENLRCYENTAVFLLSNFQYLIVALVYCDGEPYRENIS,41000
9,QVKAKTARKSSRAATKKSSAKRRRDESSEESSDEDESGGERVSRGRGGAVRDK,36000
10,ALVADPEYQRELDYMANGKQLLVPLRYLLNLVWRYCHGAQTICFSFFLLHGRN,64200
11,NNPDAKKARACESCRQLKVKCEPDADNPDGPCRRCAKAGRACVVTQPTRKRQK,38000
12,PYQSSVDVLPRPLPVLRWTWVIVGISCFYFWCVSIPAPFLLFRICFPHFNLLT,50500
13,MGLTVFSILYIPLNIIPPFFCCCLYIYHCFSFFSSTFILFFFFFGTVFAQVIL,53200
14,LLFFFFLFLSFSSLLHVWGLCLPISSFVGLWSLYLLFSPIPIVLPRVKLLFLA,60200
15,ANRRMSLVCFLFIVVRYVSIAALVLNGVGFYGTMFDMDSCTHFRLAPPVTKMV,44900
16,AEEREAKKRAREEEEEEEAERAERAERAARLRRERAEEARRQAEQKHAEEARQ,12100
17,EVGADGGAAADEEEEEESDEEGEDGGRKRKKPKVAAEKPERKASAAPADGEKK,< 6570
18,MTGIFFFFFLLFLFLQLGIGTVFERLLSFQFPNYILFPILPPLHPSSPPFFTY,38600
19,PNSSTSMDWLDNVIYTNRFVSGDDGSNSKTKNLDSNMFSNDFNFENQFDEQVS,91700
20,GYCLKIRDRFFIFLWHCWVRGIVVTPFGSKIISGLSFESIPQSSCVLIQNVTI,28400
21,PMRLHVDHVHVVGRPFLWYIIVAMCDNVTHVVLSFSGLTYYTTSRWFESIPYR,61200

row,Sequence,transcriptional activation domain activity
1,MRLIYLPIIFCRLPSHGWTIWMPIIRALSLLVFSLIYLLFIGDLPALTLTIFF,50900
2,MCEGDFCVFFCVCVCVCVCLCVLFCFLFWFLFWWLLFFFLVMLFLAVGVFVYI,35400
3,CLRVRGVLILTIERLLNDFADAEYRKYAKAILHCHQPYPNSSDCYCQILRSLV,36900
4,MHSPHNCRVSKHFVIFCFFFFFFLFCRPLPLLSNLILTLFFSSFFLLGLFGVL,64700
5,ATLNLIFTIDLLNFSFWSELPEDERFCIEYRGKRWTGYWSLVAALQRALDEGV,39000
6,MLLIWLYALKTGLVLSGSFLLAFGTQYPFFFMYFIGKPLFHDSFFLLSFLFFP,70200
7,MHHELLRPILRLGHLMWTICFWMRRIMINAESPYRKTILHVRRSNWLFRRIIT,81600
8,LLIQPLIQGFCYLMQFWISFFSSLFCFVTGDIPILLGILIPFYCLFFFHFFLF,58700
9,MAAPPFLWTLFFFLFSILLLLSHTYFFLLLLACFFRFWFFYCSFYFSFDFLSS,37900
10,MVSTRRQERDKEKKEKRKEEKEKEKGEGKTEKKKKKKSGDKKSKKGEGRTKEG,21200
11,TSAAPAFGTSGFSAAKPATPAQASAFGSPAALGAKASPWGAQNSSSSGTTAGA,31100
12,VIIVLIFAVACHLAFGTSVVVFIWRTALLRDISKLSRTNIMPMCISQVVADVL,42900
13,GQSRGTTSGTIATGLCAGLSRGIAESVELQKRIDFALAGYFRYIRWWRLGFMS,69900
14,KQRKAELIHHVVPLAVAAAFSIFLSGEDLEGPRIYHSMASLKVLRRLVAVISS,54400
15,KTQDESKPADGASTEQPAKKKRKRKQKRAQDGEGGEGAAAVGGGGGGEETQKA,33200
16,AATAEPEKKKGSKKDKAAAAPAPAAAPAKDAKSAKKAKKSAAPPPPPPAASSS,15600
17,VWEAVTTGFDGGFVPRTRDADAGTRRTGGSVRAEERKEKLRAWRVSRCWAVLA,56500
18,REAAGRERGERGRDNARGAGEREQPGRVRARLRGGRGKAREGEEGSCVRSAAP,22900
19,MPRLCCSCCYTDSLYFMIIRDRFFWLLHNGIVVVSLISYIRCMMISSPLLVGH,48400
20,LDAVSSFNSSSVKSNFASKVNTQLNLLQHSSSNSNFLDASPYDFNKIFMNNFE,62000
21,MSGFVRLLFTFDFRNVLVDILVLHIPLYLFPLFVLSEEFLLLFSFCLFVFLSF,31000

row,Sequence,transcriptional activation domain activity
1,MSVVKEENPDTPGGTTVQDVDNRLRQLIQACSPFHMLKNHNLLVLYLLIVPSA,53700
2,ADGEEEEEEGEAAGGSERPGIWGQALMELGSTVCTPKPKCVECPVTATCRAYQ,55800
3,MVLLSVLCVLICNYFCLLVFTVAMGMPSGPPVRPLFQVILAHRRYLFSFRTHW,82500
4,MPTITLAWPERAYFYSLLVVSLLSAKLLHVFSHLTTIPIFLFLLYFPTFLFLD,59600
5,KAGEAKTATSKGAGDEEEGTQKKKGTSSRKKATGTMGNGEVEIGNAGSSEKKK,36200
6,VVVILRMWAFCYRGSGHAHEMLHLLHNLICVWTKEFQYIVLQNWLANPQGKPK,58500
7,MVFLLIFIVSTLFFCLFLYLLLPSFFYVIFALLAHIFVFSVSLHRQPLLLYLS,49300
8,WIKWTFLFARYFPLLAGLCGRVIDSIVLYRNPIPIPLNALRIWYICQVLILHL,78200
9,RKKRRSTRRSRSREESSRRRGDDRRRNHSRDRSTTSRRRSRKSRSPSRDRSSR,32300
10,FFTPPSTTYLRFFLSFYPLSPFIFFFIFLSFSLPLSSFLSFSISFFFTFPFPF,36100
11,SICRLGVGLSITGYRLGSMVLLRHDLRLIVTVFSMHLKYFVSFARPSMKILLR,67300
12,MLTLLLLTLIIFLSSTLVLLFFFLIPLFLICLLTFLLIFFSSPRAFFSFPHPT,47800
13,MSLSEWLRMIWVCFGRSTSCTIVRFSFHMRLIHVLIVVVLGTVRRHWLWSFVY,35500
14,KDHIGMKCVVAIVCLLDTMHQIFITHALYIYLIKGFANPLILTRLLWTFLIQL,56400
15,SIMHALRQFCTEMRATQFQDCRLRTVQLLLRLLPSANLSLFVYLLAFLSQIVQ,36200
16,RRVTGKVLLLVWKLGVRPRLNVFEGVVHRLAVAGCFSQIPPAVALCRRILNRI,59000
17,MVILLLFFVFRVNFVIVLAVSIPRQASFHVIHRFTYLLRRLQDMLNTTHRYAA,40500
18,MIPFQTGQVMGMLNRIDRLPLKEILTYAMPYLLEKTNVSMIIRQYLWSTLGNH,44100
19,APATTAAATTSATPAVTSTLLAKPATTTTSTATPAPAAAGSLFGGAKAAGTTA,37000
